Source: patent US20260184782A1 (TWIST BIOSCIENCE, published 2026)
Changes are numbered by the printed parent chain.

T1: recombinant human TIGIT (human, UniProt Q495A1 22-141, limits assumed)
T1 construct: recombinant human TIGIT used in Carterra SPR; also called hTIGIT
T1 sequence (looked up): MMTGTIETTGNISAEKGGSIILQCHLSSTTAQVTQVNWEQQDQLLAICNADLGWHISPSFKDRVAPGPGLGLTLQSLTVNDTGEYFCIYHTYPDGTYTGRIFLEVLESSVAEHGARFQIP

B1: TIGIT-SC179 (Fc fusion)
VHH: EVQLVESGGGLVQPGGSLRLSCAASGFTFSPSWMGWFRQAPGKEREWVASVLRGGYTWYADSVKGRFTISADNSKNTAYLQMNSLKPEDTAVYYCASEVASGETDYWGQGTLVTVSS
notes: VHH-Fc fusion in assay
B2: TIGIT-SC184 (Fc fusion)
VHH: EVQLVESGGGLVQPGGSLRLSCAASGFTFSPSWMGWFRQAPGKEREWVASVLRGGYTWYADSVKGRFTISADNSKNTAYLQMNSLKPEDTAVYYCTTDRGYNWNYDWGQGTLVTVSS
notes: VHH-Fc fusion in assay
B3: TIGIT-SC178 (Fc fusion)
VHH: B1 VHH with F29L
notes: VHH-Fc fusion in assay
B4: TIGIT-SC168 (Fc fusion)
VHH: EVQLVESGGGLVQPGGSLRLSCAASGFTFDRSWMGWFRQAPGKEREWVASVLRGGYAWYADSVKGRFTISADNSKNTAYLQMSSLKPEDTAVYYCAREGSGYASDYWGQGTLVTVSS
notes: VHH-Fc fusion in assay
B5: TIGIT-SC166 (Fc fusion)
VHH: B4 VHH with A57T, S83N
notes: VHH-Fc fusion in assay
B6: TIGIT-SC163 (Fc fusion)
VHH: B4 VHH with A57T, S83N, R97T, E98D, G99K, S100R, Y102P, A103H, S104P
notes: VHH-Fc fusion in assay
B7: TIGIT-SC151 (Fc fusion)
VHH: EVQLVESGGGLVQPGGSLRLSCAASGFPFSIYPMGWFRQAPGKEREFVAAISASGTLRAYADSVKGRFTISADNSKNTAYLQMNSLKPEDTAVYYCARSSSWVRIFDYWGQGTLVTVSS
notes: VHH-Fc fusion in assay
B8: TIGIT-SC126 (Fc fusion)
VHH: EVQLVESGGGLVQPGGSLRLSCAASGSIFSGNVMGWFRQAPGKERELVAAISNSASSTVYADSVKGRFTISADNSKNTAYLQMNSLKPEDTAVYYCARDWNLFDYWGQGTLVTVSS
notes: VHH-Fc fusion in assay
B9: TIGIT-SC104 (Fc fusion)
VHH: EVQLVESGGGLVQPGGSLRLSCAASGFTFSTYTMGWFRQAPGKEREFVAAISPSGNTYYADSVKGRFTISADNSKNTAYLQMNSLKPEDTAVYYCARWGGITFGGVYPLDYWGQGTLVTVSS
notes: VHH-Fc fusion in assay
B10: TIGIT-SC18 (Fc fusion)
VHH: EVQLVESGGGLVQPGGSLRLSCAASGFSLDYYAMGWFRQAPGKEREVVAIIDTNGDNTLYADSVKGRFTISADNSKNTAYLQMNSLKPEDTAVYYCARGRGYGDYVGAYWGQGTLVTVSS
notes: VHH-Fc fusion in assay
B11: TIGIT-SC211 (Fc fusion)
VHH: EVQLVESGGGLVQPGGSLRLSCAASGFSFSMYVMGWFRQAPGKEREFVAAIWRSGTLKAYADSVKGRFTISADNSKNTAYLQMNSLKPGDTAVYYCARDHRAMVAPFDYWGQGTLVTVSS
notes: VHH-Fc fusion in assay
B12: TIGIT-SC81 (Fc fusion)
VHH: EVQLVESGGGLVQPGGSLRLSCAASGRSFKDDAMGWFRQAPGKEREFVAAISWSGDSTHYADSVKGRFTISADNSKNTAYLQMNSLKPEDTAVYYCARWVWASGTYWIDYWGQGTLVTVSS
notes: VHH-Fc fusion in assay
B13: TIGIT-SC32 (Fc fusion)
VHH: EVQLVESGGGLVQPGGSLRLSCAASGFAFGDSWMGWFRQAPGKERELVAAIDWSGGSALYADSVKGRFTISADNSKNTALQMNSLKPEDTAVYYCAKVHSDFRAGWDVWGQGTLVTVSS
notes: VHH-Fc fusion in assay
B14: TIGIT-SC8 (Fc fusion)
VHH: EVQLVESGGGLVQPGGSLRLSCAASGFAFSSYAMGWFRQAPGKEREFVARITWNGGSAYYADSVKGRFTISADNSKNTAYLQMNSLKPEDTAVYYCAAGATGWFDPWGQGTLVTVSS
notes: VHH-Fc fusion in assay
B15: TIGIT-SC22 (Fc fusion)
VHH: EVQLVESGGGLVQPGGSLRLSCAASGFTLENNMMGWFRQAPGKEREMVAAISWSGGSALYADSVKGRFTISADNSKNTAYLQMNSLKPEDTAVYYCARGDGYSYGNFDYWGQGTLVTVSS
notes: VHH-Fc fusion in assay
B16: TIGIT-SC49 (Fc fusion)
VHH: EVQLVESGGGLVQPGGSLRLSCAASGRTFIGYHMGWFRQAPGKEREFVAAISWTGESTLYADSVKGRFTISADNSKNTAYLQMNSLKPEDTAVYYCARDDYGDYRRYFQHWGQGTLVTVSS
notes: VHH-Fc fusion in assay
B17: TIGIT-SC100 (Fc fusion)
VHH: EVQLVESGGGLVQPGGSLRLSCAASGRTLSDRAMGWFRQAPGKEREFVAAITDNGGSTYYADSVKGRFTISADNSKNTAYLQMNSLKPEDTAVYYCARWYSSSGDYYYMDVWGQGTLVTVSS
notes: VHH-Fc fusion in assay
B18: TIGIT-SC101 (Fc fusion)
VHH: B17 VHH with L29F, D31S, R32Y, T52D, D53W, N54S, G55D
notes: VHH-Fc fusion in assay
B19: TIGIT-SC67 (Fc fusion)
VHH: EVQLVESGGGLVQPGGSLRLSCAASGFTFDRSWMGWFRQAPGKEREWVSTIYSNGTPAYADSVKGRFTISADNSKNTAYLQMNSLKPEDTAVYYCARRGLPSYSYGMDVWGQGTLVTVSS
notes: VHH-Fc fusion in assay
B20: TIGIT-SC212 (Fc fusion)
VHH: EVQLVESGGGLVQPGGSLRLSCAASGFLFDSYAMGWFRQAPGKEREFVAAIWRSGTLKAYADSVKGRFTISADNSKNTAYLQMNSLKPEDTAVYYCARWVGASGDYWIDYWGQGTLVTVSS
notes: VHH-Fc fusion in assay
B21: TIGIT-SC213 (Fc fusion)
VHH: B20 VHH with F27T, L28F, F29Q, D30R, S31I, Y32N
notes: VHH-Fc fusion in assay
B22: TIGIT-SC206 (Fc fusion)
VHH: EVQLVESGGGLVQPGGSLRLSCAASGFLFDSYVMGWFRQAPGKEREFVAAIWRSGTLKAYADSVKGRFTISADNSKNTAYLQMNGLKPEDTAVYYCAGVGTDYGDYLFNYWGQGTLVTVSS
notes: VHH-Fc fusion in assay
B23: TIGIT-SC52 (Fc fusion)
VHH: EVQLVESGGGLVQPGGSLRLSCAASGFLFDSYAMGWFRQAPGKEREFVAAISTGGGWRTYADSVKGRFTISADNSKNTAYLQMNSLKPEDTAVYYCAKRGNDNWYFDLWGQGTLVTVSS
notes: VHH-Fc fusion in assay

Biological target: T1, recombinant human TIGIT
Test: SPR Carterra, average
Protocol: Binding affinities of VHH-Fc proteins to recombinant human TIGIT were measured by SPR using a Carterra instrument (Table 10A). […] Average values reported from measurements from 1-2 samples.

Binder | Kd [nM] | koff [s⁻¹] | kon [M⁻¹ s⁻¹]
B1 | 51.1 | 0.00269 | 50400
B2 | 12.7 | 0.014 | 1.11e+06
B3 | 296 | 0.0776 | 262000
B4 | 83.6 | 0.00254 | 30400
B5 | 24.9 | 0.00147 | 58400
B6 | 86.4 | 0.00269 | 38400
B7 | 16.8 | 0.00479 | 285000
B8 | 18.6 | 0.013 | 871000
B9 | 15.2 | 0.00375 | 247000
B10 | 16.3 | 0.00225 | 141000
B11 | 13 | 8.53e-05 | 6540
B12 | 15.3 | 0.00233 | 169000
B13 | 16.6 | 0.00243 | 147000
B14 | 14.6 | 0.000753 | 156000
B15 | 17.7 | 0.00118 | 70300
B16 | 14.4 | 0.00102 | 129000
B17 | 15.1 | 0.00183 | 122000
B18 | 73.4 | 0.00421 | 67800
B19 | 18 | 0.00402 | 224000
B20 | 17.1 | 0.00126 | 74100
B21 | 36.4 | 0.00285 | 78400
B22 | 15.6 | 0.0157 | 1e+06
B23 | 17.7 | 0.00175 | 101000
